This is an account of results in article PMC11565809 (bioRxiv, 2024).

This test concerns the target human factor H (human, UniProt P08603 19-1231). Kind of test: ELISA.

Chain of human factor H (P08603 19-1231): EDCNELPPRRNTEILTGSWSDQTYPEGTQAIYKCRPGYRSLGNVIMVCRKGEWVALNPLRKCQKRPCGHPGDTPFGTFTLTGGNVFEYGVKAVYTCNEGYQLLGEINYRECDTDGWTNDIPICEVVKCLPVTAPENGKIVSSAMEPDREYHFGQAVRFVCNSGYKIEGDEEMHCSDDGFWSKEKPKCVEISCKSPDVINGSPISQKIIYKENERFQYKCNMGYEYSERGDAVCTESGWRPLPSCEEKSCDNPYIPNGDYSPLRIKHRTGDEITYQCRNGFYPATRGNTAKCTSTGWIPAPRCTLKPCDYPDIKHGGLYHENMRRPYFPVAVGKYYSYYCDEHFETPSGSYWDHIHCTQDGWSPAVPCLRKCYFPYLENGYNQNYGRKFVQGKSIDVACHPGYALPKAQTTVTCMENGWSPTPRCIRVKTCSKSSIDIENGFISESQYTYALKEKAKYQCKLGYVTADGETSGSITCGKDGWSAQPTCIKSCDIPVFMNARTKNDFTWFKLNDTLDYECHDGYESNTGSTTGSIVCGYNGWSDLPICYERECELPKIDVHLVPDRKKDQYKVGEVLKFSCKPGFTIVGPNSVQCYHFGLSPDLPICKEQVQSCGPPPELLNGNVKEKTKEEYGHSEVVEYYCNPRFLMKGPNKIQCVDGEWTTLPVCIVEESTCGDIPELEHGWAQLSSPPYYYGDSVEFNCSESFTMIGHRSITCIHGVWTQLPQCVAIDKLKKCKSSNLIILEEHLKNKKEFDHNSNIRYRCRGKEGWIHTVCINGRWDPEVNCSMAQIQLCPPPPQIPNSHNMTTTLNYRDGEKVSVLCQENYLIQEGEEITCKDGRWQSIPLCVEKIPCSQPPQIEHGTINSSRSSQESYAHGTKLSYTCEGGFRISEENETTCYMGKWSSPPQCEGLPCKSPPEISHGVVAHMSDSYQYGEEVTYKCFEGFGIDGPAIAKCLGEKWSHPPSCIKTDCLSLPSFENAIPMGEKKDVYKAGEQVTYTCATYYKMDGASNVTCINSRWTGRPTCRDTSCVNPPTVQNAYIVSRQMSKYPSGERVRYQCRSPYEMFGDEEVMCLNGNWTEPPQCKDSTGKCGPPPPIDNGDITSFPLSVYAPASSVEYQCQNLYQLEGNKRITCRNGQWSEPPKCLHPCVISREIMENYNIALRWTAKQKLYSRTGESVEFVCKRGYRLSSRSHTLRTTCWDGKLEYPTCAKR

B1: histidine-tagged CspZ (natural protein, B. burgdorferi)
chain: RLNQRNINELKIFVEKAKYYSIKLDAIYNECTGAYNDIMTYSEGTFSDQSKVNQAISIFKKDNKIVNKFKELEKIIEEYKPMFLSKLIDDFAIELDQAVDNDVSNARHVADSYKKLRKSVVLAYIESFDVISSKFVDSKFVEASKKFVNKAKEFVEENDLIALECIVKTIGDMVNDREINSRSRYNNFYKKEADFLGAAVELEGAYKAIKQTLL
Consider B1, for which the binding result is on record as “binds”.
